We go through four molecules from KR20230039786A (dated 2023).

Where a chain is given by its changes, count along the chain named.

B1: 3E10 anti-NP monoclonal antibody (antibody, V domains shown)
VH: EVQLEQSGPELVRPGVSVKISCKGSGYTFTDYAMHWVKQSHAKSLEWIGVISTYSGNTSYNQKFKGKATMTVDKSSSTAYMELARLTAEDSAIYYCANGGNYGFDYWGQGTTLTVSS
VL: DIVLTQSPKFMSTSVGDRVSITCKASQDVGTAVAWYQQKPGQSPRLLIYWTSTRHTGVPDRFTGSGSGTDFTLTISNVQSEDLADYFCQQYSSYPLTFGGGTKLEIK
B2: 5B6.8 anti-NP monoclonal antibody (antibody, V domains shown)
VH: B1 VH with E1Q, E5Q, Q6E
VL: DIVITQSPKFMSTSVGDRVSITCEASQDVTTAVAWYQQKPGQSPKLLIYSASYRFTGVPDRFTGSGSGTDFTFTISSVQAEDLAVYYCQQHYSSPLTFGAGTKLELK
B3: 5B6 anti-NP monoclonal antibody (antibody, V domains shown)
VH: QVQLQESGPELKKPGETVKISCTASGYTFANYGMNWVKQAPGKGLKWMGWINTYTGETTYADDFKGRFAFSLETSASTASLQINKLKNEDTATYFCTRSVLLRSYFDYGGQGTTLTVSS
VL: B2 VL with I4M, T56A
B4: 3F10 anti-NP monoclonal antibody (antibody, V domains shown)
VH: EVQLEESGPELKKPGETVKISCKASGYTFTDYSMHWVKQAPGKGLKWMGWINTETGEPTYADDFKGRFAFSLETSASTASLQINNLKNEDTATYFCGSGSRYSWYFDVWGAGTTVTVSS
VL: DIVLTQSPKFMSTSLGDRVSVTCKASQSVGTNVAWFQQNSGQSPKALIYSASYRYSGVPDRFTGSGSGTDFTLTISNVKSEDLAEYFCQQYNSYPLAFGGGTKVEIK

Sequence of SARS-CoV NP antigen (Sino Biological) (P59595 whole entry): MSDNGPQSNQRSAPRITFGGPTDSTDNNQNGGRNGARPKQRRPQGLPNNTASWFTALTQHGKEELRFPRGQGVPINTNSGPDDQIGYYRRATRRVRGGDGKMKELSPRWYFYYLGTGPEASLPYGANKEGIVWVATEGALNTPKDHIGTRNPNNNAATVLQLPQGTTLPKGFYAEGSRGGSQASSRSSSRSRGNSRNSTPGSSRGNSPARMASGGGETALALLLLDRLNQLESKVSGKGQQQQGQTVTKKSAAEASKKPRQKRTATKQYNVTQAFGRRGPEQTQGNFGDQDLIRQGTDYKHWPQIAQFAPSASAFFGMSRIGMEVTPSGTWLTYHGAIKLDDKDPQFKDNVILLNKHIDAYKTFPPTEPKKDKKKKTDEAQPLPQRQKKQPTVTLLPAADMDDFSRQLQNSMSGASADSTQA

The test addresses SARS-CoV NP antigen (Sino Biological) (SARS-CoV, UniProt P59595 1-422). As to the kind of experiment: indirect ELISA, SARS-CoV NP coated, anti-mouse IgG-HRP.
B1: the EC50 is 2 ng/mL.

For B2, it took 1320 ng/mL to reach a half-maximal effect (EC50).

On to B3, for which the EC50 came to 4 ng/mL.

In turn, B4 had an EC50 of 10 ng/mL.
